The supplement of paper PMC7877785
± gives the uncertainty stated by the source.

Assay: self-splicing fitness, log relative to wild type (ln ratio); higher = more splicing; Tetrahymena group I intron in knt gene, E. coli kanamycin selection, DiMSum; sequences stand for … in CUCUCU…GGAGGGAAAAGUUAUCAGGCAUGCACCUGGUAGCUAGUCUUUAAACCAAUAGAUUGCAUCGGUUUAAAAGGCAAGACCGUCAAAUUGCGGGAAAGGGGUCAACAGCCGUUCAGUACCAAGUCUCAGGGGAAACUUUGAGAUGGCCUUGCAAAGGGUAUGGUAAUAAGCUGACGGACAUGGUCCUAACCACGCAGCCAAGUCCUAAGUCAACAGAUCUUCUGUUGAUAUGGAUGCAGUUCACAGACUAAAUGUCGGUCGGGGAAGAUGUAUUCUUCUCAUAAGAUAUAGUCGGACCUCUCCUUAAUGGGAGCUAGCGGAUGAAGUGAUGCAACACUGGAGCCGCUGGGAACUAAUUUGUAUGCGAAAGUAUAUUGAUUAGUUUUGGAGUACUCGUGGUCG
In short: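 Library with all eight P1ex-region intron nucleotides randomised, intron inside the knt kanamycin-resistance gene on pET-22b(+), in E. coli BL21(DE3). Cells grew overnight at 37°C or 30°C on LB agar with or without 25 μg/mL kanamycin (plus 100 μg/mL carbenicillin, 50 μM IPTG, 0.2% rhamnose), in six replicate transformations. Pooled colonies were amplicon-sequenced on Illumina HiSeq 2500. DiMSum fitness is the error-weighted combination of wild-type-normalised replicate fold changes, kanamycin versus none.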

| Sequence | self-splicing fitness (ln) (30 °C) | self-splicing fitness (ln) (37 °C) |
| --- | --- | --- |
| AAUAAGCAAUAUUACGGCUG | -0.2 ± 0.085 | 0.42 ± 0.1 |
| AAUAAGCAAUAUUACGGGAC | -3.76 ± 0.3 | -2.17 ± 0.21 |
| AAUAAGCAAUAUUACGGGUG | -1.59 ± 0.12 | -1.04 ± 0.11 |
| AAUAAGCAAUAUUACGUAAC | – | -1.85 ± 0.25 |
| AAUAAGCAAUAUUACGUAUC | -1.6 ± 0.087 | -1.36 ± 0.11 |
| AAUAAGCAAUAUUACGUCCU | -0.0473 ± 0.076 | 0.0333 ± 0.088 |
| AAUAAGCAAUAUUACGUCGU | -0.729 ± 0.079 | -0.613 ± 0.093 |
| AAUAAGCAAUAUUACGUCUC | -1.68 ± 0.11 | -0.799 ± 0.13 |
| AAUAAGCAAUAUUACGUUAU | -2.45 ± 0.13 | -1.58 ± 0.16 |
| AAUCAGCAAUAUUACGAAUU | -0.152 ± 0.1 | 0.193 ± 0.13 |
| AAUCAGCAAUAUUACGACGG | -1.73 ± 0.097 | -0.991 ± 0.13 |
| AAUCAGCAAUAUUACGACGU | 0.0618 ± 0.056 | 0.666 ± 0.07 |
| AAUCAGCAAUAUUACGACUG | -0.833 ± 0.097 | 0.27 ± 0.11 |
| AAUCAGCAAUAUUACGACUU | 0.234 ± 0.068 | 0.142 ± 0.083 |
| AAUCAGCAAUAUUACGAGGC | -3.28 ± 0.25 | -2.47 ± 0.23 |
| AAUCAGCAAUAUUACGAUAA | -0.0103 ± 0.084 | -0.0641 ± 0.1 |
| AAUCAGCAAUAUUACGAUUG | -1.54 ± 0.064 | -0.631 ± 0.085 |
| AAUCAGCAAUAUUACGCACC | -0.409 ± 0.17 | 0.0564 ± 0.22 |
| AAUCAGCAAUAUUACGCAGG | -1.51 ± 0.11 | 0.11 ± 0.097 |
| AAUCAGCAAUAUUACGCAGU | -0.402 ± 0.066 | -0.257 ± 0.078 |
| AAUCAGCAAUAUUACGCAUU | -1.1 ± 0.072 | -0.498 ± 0.086 |
| AAUCAGCAAUAUUACGCCCU | 0.314 ± 0.099 | 0.0253 ± 0.12 |
| AAUCAGCAAUAUUACGGAAG | -1.75 ± 0.11 | -0.948 ± 0.12 |
| AAUCAGCAAUAUUACGGAUC | -0.358 ± 0.073 | 0.17 ± 0.1 |

| Sequence | self-splicing fitness (ln) (30 °C) | self-splicing fitness (ln) (37 °C) |
| --- | --- | --- |
| AAUCAGCAAUAUUACGGCCC | -0.563 ± 0.18 | 0.491 ± 0.2 |
| AAUCAGCAAUAUUACGGCCU | 0.091 ± 0.13 | 0.245 ± 0.15 |
| AAUCAGCAAUAUUACGGGAC | -3.57 ± 0.18 | -1.4 ± 0.096 |
| AAUCAGCAAUAUUACGGGCC | -3.19 ± 0.44 | -2.58 ± 0.28 |
| AAUCAGCAAUAUUACGGGCU | -2.04 ± 0.081 | -1.22 ± 0.094 |
| AAUCAGCAAUAUUACGGGGC | -3.92 ± 0.33 | -2.58 ± 0.29 |
| AAUCAGCAAUAUUACGGUAC | -0.714 ± 0.082 | -0.852 ± 0.1 |
| AAUCAGCAAUAUUACGUACC | -0.557 ± 0.16 | -0.29 ± 0.18 |
| AAUCAGCAAUAUUACGUGAG | -0.184 ± 0.047 | 0.612 ± 0.077 |
| AAUCAGCAAUAUUACGUGGU | -1.65 ± 0.088 | -0.981 ± 0.11 |
| AAUCAGCAAUAUUACGUUGG | -2.06 ± 0.1 | -1 ± 0.1 |
| AAUGAGCAAUAUUACGAACA | -1.5 ± 0.45 | -1.2 ± 0.48 |
| AAUGAGCAAUAUUACGACAA | -3.01 ± 0.27 | -1.93 ± 0.25 |
| AAUGAGCAAUAUUACGAUUA | -2.57 ± 0.11 | -1.37 ± 0.1 |
| AAUGAGCAAUAUUACGAUUC | -3.1 ± 0.26 | -2.43 ± 0.26 |
| AAUGAGCAAUAUUACGCAGA | -2.8 ± 0.27 | -1.56 ± 0.25 |
| AAUGAGCAAUAUUACGCCUG | -3.5 ± 0.2 | -2.85 ± 0.26 |
| AAUGAGCAAUAUUACGCUGC | – | -1.24 ± 0.24 |
| AAUGAGCAAUAUUACGGCAA | -2.55 ± 0.34 | -1.85 ± 0.35 |
| AAUGAGCAAUAUUACGGGAU | -4.32 ± 0.28 | -3.09 ± 0.29 |
| AAUGAGCAAUAUUACGGGCC | – | -1.76 ± 0.39 |
| AAUGAGCAAUAUUACGGUAU | – | -1.81 ± 0.19 |
| AAUGAGCAAUAUUACGGUGA | -3.31 ± 0.27 | -2.26 ± 0.42 |
| AAUGAGCAAUAUUACGGUUG | -2.99 ± 0.13 | -2.81 ± 0.19 |

| Sequence | self-splicing fitness (ln) (30 °C) | self-splicing fitness (ln) (37 °C) |
| --- | --- | --- |
| AAUGAGCAAUAUUACGUAAG | -2.38 ± 0.22 | -2.2 ± 0.23 |
| AAUGAGCAAUAUUACGUACU | -0.657 ± 0.12 | -0.978 ± 0.16 |
| AAUGAGCAAUAUUACGUCUA | -2.27 ± 0.24 | -1.59 ± 0.18 |
| AAUGAGCAAUAUUACGUCUU | 0.00922 ± 0.083 | -0.0903 ± 0.096 |
| AAUGAGCAAUAUUACGUGUU | -4.51 ± 0.23 | -2.85 ± 0.22 |
| AAUGAGCAAUAUUACGUUAA | -2.76 ± 0.18 | -1.72 ± 0.17 |
| AAUGAGCAAUAUUACGUUGU | -3.73 ± 0.14 | -2.89 ± 0.16 |
| AAUUAGCAAUAUUACGAAAA | -2.54 ± 0.24 | -0.586 ± 0.19 |
| AAUUAGCAAUAUUACGAAGC | -1.94 ± 0.27 | – |
| AAUUAGCAAUAUUACGAAGG | -2.79 ± 0.23 | -1.88 ± 0.35 |
| AAUUAGCAAUAUUACGAUGU | -0.358 ± 0.078 | 0.171 ± 0.11 |
| AAUUAGCAAUAUUACGAUUU | -0.494 ± 0.11 | -0.268 ± 0.13 |
| AAUUAGCAAUAUUACGCAGC | -3.15 ± 0.48 | -2.21 ± 0.27 |
| AAUUAGCAAUAUUACGCGCA | -0.118 ± 0.11 | 0.114 ± 0.15 |
| AAUUAGCAAUAUUACGCGCG | -1.62 ± 0.17 | -0.951 ± 0.18 |
| AAUUAGCAAUAUUACGCUUU | -3.27 ± 0.23 | -1.01 ± 0.14 |
| AAUUAGCAAUAUUACGGCAA | -0.926 ± 0.14 | -0.497 ± 0.18 |
| AAUUAGCAAUAUUACGGCAU | 0.0829 ± 0.11 | 0.351 ± 0.11 |
| AAUUAGCAAUAUUACGGCUA | -0.905 ± 0.17 | -0.685 ± 0.22 |
| AAUUAGCAAUAUUACGGGCG | -0.93 ± 0.12 | -1.36 ± 0.13 |
| AAUUAGCAAUAUUACGGGGU | -2.06 ± 0.2 | -2.02 ± 0.32 |
| AAUUAGCAAUAUUACGGGUA | -1.52 ± 0.11 | -0.428 ± 0.098 |
| AAUUAGCAAUAUUACGGUUU | -1.16 ± 0.063 | -0.716 ± 0.089 |
| AAUUAGCAAUAUUACGUACG | -1.75 ± 0.11 | -0.862 ± 0.12 |

| Sequence | self-splicing fitness (ln) (30 °C) | self-splicing fitness (ln) (37 °C) |
| --- | --- | --- |
| AAUUAGCAAUAUUACGUAUC | -2.2 ± 0.15 | -0.0316 ± 0.13 |
| AAUUAGCAAUAUUACGUCCA | -0.685 ± 0.087 | -1.2 ± 0.096 |
| AAUUAGCAAUAUUACGUCCG | -1.12 ± 0.18 | -0.444 ± 0.26 |
| AAUUAGCAAUAUUACGUCGU | -0.641 ± 0.1 | -0.862 ± 0.12 |
| AAUUAGCAAUAUUACGUGGG | -3.58 ± 0.24 | -3.64 ± 0.3 |
| ACAAAGCAAUAUUACGAACC | -0.815 ± 0.21 | -1.44 ± 0.19 |
| ACAAAGCAAUAUUACGAAUU | -3.38 ± 0.2 | -2.12 ± 0.18 |
| ACAAAGCAAUAUUACGACAA | -0.955 ± 0.15 | -0.443 ± 0.13 |
| ACAAAGCAAUAUUACGACAC | -1.54 ± 0.084 | -0.962 ± 0.1 |
| ACAAAGCAAUAUUACGACGC | -0.112 ± 0.044 | 0.422 ± 0.066 |
| ACAAAGCAAUAUUACGACUA | -0.772 ± 0.082 | -0.796 ± 0.084 |
| ACAAAGCAAUAUUACGACUU | -0.336 ± 0.06 | 0.0905 ± 0.079 |
| ACAAAGCAAUAUUACGAGGG | -3.39 ± 0.11 | -2.14 ± 0.11 |
| ACAAAGCAAUAUUACGAUCU | -0.717 ± 0.067 | -0.0747 ± 0.083 |
| ACAAAGCAAUAUUACGAUGC | -1.61 ± 0.11 | -1.9 ± 0.15 |
| ACAAAGCAAUAUUACGCAAA | -2.72 ± 0.14 | -1.6 ± 0.12 |
| ACAAAGCAAUAUUACGCAGC | -2.63 ± 0.17 | -0.879 ± 0.16 |
| ACAAAGCAAUAUUACGCAUA | -2.12 ± 0.12 | -0.921 ± 0.11 |
| ACAAAGCAAUAUUACGCCCA | -1.24 ± 0.11 | -0.225 ± 0.13 |
| ACAAAGCAAUAUUACGCCCU | -0.361 ± 0.098 | 0.683 ± 0.14 |
| ACAAAGCAAUAUUACGCGUA | -1.4 ± 0.099 | -0.512 ± 0.097 |
| ACAAAGCAAUAUUACGCUCU | -1.09 ± 0.063 | -0.102 ± 0.095 |
| ACAAAGCAAUAUUACGGCUG | -0.524 ± 0.069 | -0.277 ± 0.088 |
| ACAAAGCAAUAUUACGGCUU | -0.982 ± 0.084 | -0.814 ± 0.12 |
